Source: PMC11000523 (Nature, 2023)

Key:
[1] = molecular target: nucleosome core particle carrying a methyllysine analogue of histone H3K9 (H3Kc9me3) (Xenopus laevis); experiment: BLI
[2] = molecular target: BAH domain of human TNRC18 (amino acids 2785–2968) (human) (UniProt O15417); experiment: ITC
[3] = molecular target: TNRC18 BAH domain, 2785-2968 (UniProt O15417); experiment: isothermal titration calorimetry; conditions: reference: H3(1–22)K9me3 peptide; sites T11
[4] = molecular target: T1, amino acids 718–792 of TNRC18 (Sin3-interaction motif of TNRC18) (human, UniProt O15417 718-792); experiment: ITC
T1 sequence (peptide, looked up): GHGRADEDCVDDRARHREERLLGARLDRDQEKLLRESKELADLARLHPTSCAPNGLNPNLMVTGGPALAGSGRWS

Chain of BAH domain of human TNRC18 (amino acids 2785–2968) (human) (O15417 2785-2968): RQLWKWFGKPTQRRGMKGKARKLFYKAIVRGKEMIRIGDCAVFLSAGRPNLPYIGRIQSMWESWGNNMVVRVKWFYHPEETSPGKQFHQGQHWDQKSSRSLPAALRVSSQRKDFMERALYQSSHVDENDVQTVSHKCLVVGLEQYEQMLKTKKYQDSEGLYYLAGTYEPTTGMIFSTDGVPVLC

A Kd [1] of 0.0188 µM was found for “BAH domain of human TNRC18 (amino acids 2785–2968) (from UniProt O15417 2785-2968) (domain or fragment)” in this work.

A Kd [2] of 252 µM was found for H3K9me2 peptide in this work.

“histone H3 1-22 (from UniProt P68431) H3(1–22)K9me3 T11ph peptide” was tested, and the “binding against the reference” value [3] was “same”.

B1: PAH domain of Sin3 (domain or fragment)
chain: QRLKVEDALSYLDQVKLQFGSQPQVYNDFLDIMKEFKSQSIDTPGVISRVSQLFKGHPDLIMGFNTFLPPG
A Kd [4] of 104 µM was found for B1 in this work.
